Reference: US20240018260A1 (AMUNIX PHARMACEUTICALS, published 2024)
Blank lines part the entries; values can stand above or below the binder they belong to.

Columns and labels:
[1] = biological target: T1, human EpCAM on EpCAM positive human carcinoma cells (SW480, SK-OV-3) (human, UniProt P16422 24-314); assay: cell-based or functional assay
T1 sequence (looked up): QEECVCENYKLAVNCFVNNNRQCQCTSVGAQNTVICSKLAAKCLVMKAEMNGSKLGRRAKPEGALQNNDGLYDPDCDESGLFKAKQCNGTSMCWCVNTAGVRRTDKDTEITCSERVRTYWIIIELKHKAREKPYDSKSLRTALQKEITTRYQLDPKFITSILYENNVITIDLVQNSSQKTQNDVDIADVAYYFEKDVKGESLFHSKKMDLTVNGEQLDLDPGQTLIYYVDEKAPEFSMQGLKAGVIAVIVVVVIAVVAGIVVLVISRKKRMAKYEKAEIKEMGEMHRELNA

[2] = biological target: human CD3 on purified human CD3 positive T cells (human, UniProt P07766 23-207); assay: cell-based or functional assay
[3] = biological target: T2, recombinant human EpCAM (rhEpCAM) (human, UniProt P16422 24-265); assay: sandwich ELISA: rhEpCAM coated on plate, detection with peroxidase-conjugated protein L
T2 construct: Bought recombinant protein coated on the ELISA plate
T2 sequence (looked up): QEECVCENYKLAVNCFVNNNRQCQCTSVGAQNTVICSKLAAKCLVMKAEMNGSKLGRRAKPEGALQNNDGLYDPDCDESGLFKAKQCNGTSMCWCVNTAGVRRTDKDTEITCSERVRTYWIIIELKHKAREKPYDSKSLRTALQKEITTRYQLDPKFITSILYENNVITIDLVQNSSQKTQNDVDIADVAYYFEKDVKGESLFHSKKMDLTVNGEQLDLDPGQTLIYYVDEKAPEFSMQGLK
Experimental: The binding capability of anti-EpCAM×anti-CD3 ProTIA composition was verified with an EpCAM/peroxidase-conjugated protein-L sandwich ELISA. In the ELISA binding assay, recombinant human EpCAM (rhEpCAM) (Sino BiologicalR&D Systems cat #10694-H08H960-EP-50) was coated on a 96-well, flat-bottomed plate at a concentration of 0.1 microg/100 microL. After overnight incubation at 4° C., the assay plate was washed and blocked with 3% bovine serum albumin (BSA) for 1 h at room temperature. The plate was washed again followed by the introduction of a dose range of non-cleavable anti-EpCAM×anti-CD3 ProTIA (i.e., a ProTIA without the release segment cleavage sequence and AC1484, a ProTIA chimeric polypeptide assembly composition) and protease-treated and protease-untreated anti-EpCAM×anti-CD3 ProTIA (e.g. AC1476). The dose range utilized for non-cleavable and protease-treated and untreated ProTIA was 0.0006 to 5 nM, achieved with a 1:6 fold serial dilution scheme from a starting concentration of 5 nM. The plate was allowed to incubate with shaking for 1 h at room temperature to allow the non-cleavable, protease-cleaved and uncleaved ProTIA to bind to the rhEpCAM coated on the plate. Unbound components were removed with a wash step and a peroxidase-conjugated protein L (PierceThermoFisher Scientific cat #32420) was added. After an appropriate incubation period that allowed protein-L to bind to the kappa light of the scFvs, any unbound reagent was removed by a wash step followed by the addition of tetramethylbenzidine (TMB) substrate to each well. TMB is a chromogenic substrate of peroxidase. After desired color intensity was reached, 0.2 N sulfuric acid was added to stop the reaction and absorbance (OD) was measured at 450 nm using a spectrophotometer. The intensity of the color is proportional to the concentration of non-cleavable, protease-treated and untreated anti-EpCAM×anti-CD3 ProTIA captured by the rhEpCAM/protein-L sandwich ELISA. The intensity of the color produced (measured OD) was plotted against protein concentration; and the concentration of non-cleavable, protease-cleaved and uncleaved anti-EpCAM×anti-CD3 ProTIA that gave half-maximal response (EC₅₀) was derived with a 4-parameter logistic regression equation using GraphPad prism software.

[4] = biological target: T3, recombinant human CD3 (rhCD3εδ) (human, UniProt P07766 23-126; P04234 22-105); assay: sandwich ELISA: rhCD3εδ coated on plate, detection with peroxidase-conjugated protein L
T3 chain: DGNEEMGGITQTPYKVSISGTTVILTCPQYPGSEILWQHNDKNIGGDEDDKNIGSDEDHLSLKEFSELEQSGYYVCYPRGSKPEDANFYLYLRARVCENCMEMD

EC50 [3]: 0.28 nM
fold hindrance of binding by XTEN864, against protease-treated ProTIA [3]: ≥ 2.3 fold
EC50 [4]: 1.8 nM
fold hindrance of binding by XTEN864, against the cleaved and released anti-CD3scFv portion [4]: ~5.8 fold
B1: AC1476 aEpCAM-aCD3-BSRS1-XTEN_AE864-His(6), protease-untreated (intact) anti-EpCAM×anti-CD3 ProTIA (bispecific antibody)
chain: DIQMTQSPSSLSASVGDRVTITCRSTKSLLHSNGITYLYWYQQKPGKAPKLLIYQMSNLASGVPSRFSSSGSGTDFTLTISSLQPEDFATYYCAQNLEIPRTFGQGTKVEIKGATPPETGAETESPGETTGGSAESEPPGEGQVQLVQSGPGLVQPGGSVRISCAASGYTFTNYGMNWVKQAPGKGLEWMGWINTYTGESTYADSFKGRFTFSLDTSASAAYLQINSLRAEDTAVYYCARFAIKGDYWGQGTLLTVSSGGGGSDIQMTQSPSSLSASVGDRVTITCRASQDIRNYLNWYQQKPGKAPKLLIYYTSRLESGVPSRFSGSGSGTDYTLTISSLQPEDFATYYCQQGNTLPWTFGQGTKVEIKGATPPETGAETESPGETTGGSAESEPPGEGEVQLVESGGGLVQPGGSLRLSCAASGYSFTGYTMNWVRQAPGKGLEWVALINPYKGVSTYNQKFKDRFTISVDKSKNTAYLQMNSLRAEDTAVYYCARSGYYGDSDWYFDVWGQGTLVTVSSGTAEAASASGLSGRSDNHSPLGLAGSPGSPAGSPTSTEEGTSESATPESGPGTSTEPSEGSAPGSPAGSPTSTEEGTSTEPSEGSAPGTSTEPSEGSAPGTSESATPESGPGSEPATSGSETPGSEPATSGSETPGSPAGSPTSTEEGTSESATPESGPGTSTEPSEGSAPGTSTEPSEGSAPGSPAGSPTSTEEGTSTEPSEGSAPGTSTEPSEGSAPGTSESATPESGPGTSTEPSEGSAPGTSESATPESGPGSEPATSGSETPGTSTEPSEGSAPGTSTEPSEGSAPGTSESATPESGPGTSESATPESGPGSPAGSPTSTEEGTSESATPESGPGSEPATSGSETPGTSESATPESGPGTSTEPSEGSAPGTSTEPSEGSAPGTSTEPSEGSAPGTSTEPSEGSAPGTSTEPSEGSAPGTSTEPSEGSAPGSPAGSPTSTEEGTSTEPSEGSAPGTSESATPESGPGSEPATSGSETPGTSESATPESGPGSEPATSGSETPGTSESATPESGPGTSTEPSEGSAPGTSESATPESGPGSPAGSPTSTEEGSPAGSPTSTEEGSPAGSPTSTEEGTSESATPESGPGTSTEPSEGSAPGTSESATPESGPGSEPATSGSETPGTSESATPESGPGSEPATSGSETPGTSESATPESGPGTSTEPSEGSAPGSPAGSPTSTEEGTSESATPESGPGSEPATSGSETPGTSESATPESGPGSPAGSPTSTEEGSPAGSPTSTEEGTSTEPSEGSAPGTSESATPESGPGTSESATPESGPGTSESATPESGPGSEPATSGSETPGSEPATSGSETPGSPAGSPTSTEEGTSTEPSEGSAPGTSTEPSEGSAPGSEPATSGSETPGTSESATPESGPGTSTEPSEGSAPGHHHHHH
notes: also called ProTIA-X; protease-untreated anti-EpCAM×anti-CD3 ProTIA
EC50, LDH release cytotoxicity, PBMC:SK-OV-3 5:1 [1]: 0.136 nM
EC50, LDH release cytotoxicity, purified human CD3 positive T cells:OVCAR-3 5:1 [2]: 0.0007 nM
EC50, LDH release cytotoxicity, purified human CD3 positive T cells:SK-OV-3 5:1 [2]: 0.134 nM

EC50 [3]: 0.32 nM
EC50 [4]: 2.2 nM
B2: AC1484, non-cleavable anti-EpCAM×anti-CD3 ProTIA (without the release segment cleavage sequence) (bispecific antibody)
chain: DIQMTQSPSSLSASVGDRVTITCRSTKSLLHSNGITYLYWYQQKPGKAPKLLIYQMSNLASGVPSRFSSSGSGTDFTLTISSLQPEDFATYYCAQNLEIPRTFGQGTKVEIKGATPPETGAETESPGETTGGSAESEPPGEGQVQLVQSGPGLVQPGGSVRISCAASGYTFTNYGMNWVKQAPGKGLEWMGWINTYTGESTYADSFKGRFTFSLDTSASAAYLQINSLRAEDTAVYYCARFAIKGDYWGQGTLLTVSSGGGGSDIQMTQSPSSLSASVGDRVTITCRASQDIRNYLNWYQQKPGKAPKLLIYYTSRLESGVPSRFSGSGSGTDYTLTISSLQPEDFATYYCQQGNTLPWTFGQGTKVEIKGATPPETGAETESPGETTGGSAESEPPGEGEVQLVESGGGLVQPGGSLRLSCAASGYSFTGYTMNWVRQAPGKGLEWVALINPYKGVSTYNQKFKDRFTISVDKSKNTAYLQMNSLRAEDTAVYYCARSGYYGDSDWYFDVWGQGTLVTVSSGSPGSPAGSPTSTEEGTSESATPESGPGTSTEPSEGSAPGSPAGSPTSTEEGTSTEPSEGSAPGTSTEPSEGSAPGTSESATPESGPGSEPATSGSETPGSEPATSGSETPGSPAGSPTSTEEGTSESATPESGPGTSTEPSEGSAPGTSTEPSEGSAPGSPAGSPTSTEEGTSTEPSEGSAPGTSTEPSEGSAPGTSESATPESGPGTSTEPSEGSAPGTSESATPESGPGSEPATSGSETPGTSTEPSEGSAPGTSTEPSEGSAPGTSESATPESGPGTSESATPESGPGSPAGSPTSTEEGTSESATPESGPGSEPATSGSETPGTSESATPESGPGTSTEPSEGSAPGTSTEPSEGSAPGTSTEPSEGSAPGTSTEPSEGSAPGTSTEPSEGSAPGTSTEPSEGSAPGSPAGSPTSTEEGTSTEPSEGSAPGTSESATPESGPGSEPATSGSETPGTSESATPESGPGSEPATSGSETPGTSESATPESGPGTSTEPSEGSAPGTSESATPESGPGSPAGSPTSTEEGSPAGSPTSTEEGSPAGSPTSTEEGTSESATPESGPGTSTEPSEGSAPGTSESATPESGPGSEPATSGSETPGTSESATPESGPGSEPATSGSETPGTSESATPESGPGTSTEPSEGSAPGSPAGSPTSTEEGTSESATPESGPGSEPATSGSETPGTSESATPESGPGSPAGSPTSTEEGSPAGSPTSTEEGTSTEPSEGSAPGTSESATPESGPGTSESATPESGPGTSESATPESGPGSEPATSGSETPGSEPATSGSETPGSPAGSPTSTEEGTSTEPSEGSAPGTSTEPSEGSAPGSEPATSGSETPGTSESATPESGPGTSTEPSEGSAPGHHHHHH
notes: also called non-cleavable ProTIA; protease-noncleavable anti-EpCAM×anti-CD3 ProTIA
EC50, LDH release cytotoxicity, PBMC:SK-OV-3 5:1 [1]: 1.79 nM
EC50, LDH release cytotoxicity, purified human CD3 positive T cells:OVCAR-3 5:1 [2]: 0.086 nM
EC50, LDH release cytotoxicity, purified human CD3 positive T cells:SK-OV-3 5:1 [2]: 2.66 nM
